# T1: crosslinked human fibrin treated by human factor XIIIa (human, UniProt P02671 36-629; P02675 45-491; P02679 27-437, crosslinked by factor XIIIa)
# T1 construct: Coated human fibrinogen treated with thrombin and 0.55 ug factor XIIIa (Zedira) per well; also called crosslinked fibrin
# T1 sequence (looked up) 1: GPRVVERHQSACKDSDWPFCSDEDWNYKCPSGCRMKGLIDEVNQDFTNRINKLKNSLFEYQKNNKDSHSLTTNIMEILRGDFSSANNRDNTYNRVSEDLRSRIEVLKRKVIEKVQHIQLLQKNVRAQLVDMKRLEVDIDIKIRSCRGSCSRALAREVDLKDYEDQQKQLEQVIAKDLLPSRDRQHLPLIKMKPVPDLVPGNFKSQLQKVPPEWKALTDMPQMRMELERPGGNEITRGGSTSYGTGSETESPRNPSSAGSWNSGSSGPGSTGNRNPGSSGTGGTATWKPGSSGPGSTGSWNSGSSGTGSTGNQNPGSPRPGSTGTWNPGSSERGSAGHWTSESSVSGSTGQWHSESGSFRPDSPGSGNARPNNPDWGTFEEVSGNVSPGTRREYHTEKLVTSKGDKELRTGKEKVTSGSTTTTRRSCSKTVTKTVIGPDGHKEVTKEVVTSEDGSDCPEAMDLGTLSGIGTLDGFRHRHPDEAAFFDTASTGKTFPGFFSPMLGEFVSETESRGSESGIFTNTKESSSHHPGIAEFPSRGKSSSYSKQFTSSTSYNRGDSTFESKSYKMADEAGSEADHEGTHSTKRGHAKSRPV
# T1 sequence (looked up) 2: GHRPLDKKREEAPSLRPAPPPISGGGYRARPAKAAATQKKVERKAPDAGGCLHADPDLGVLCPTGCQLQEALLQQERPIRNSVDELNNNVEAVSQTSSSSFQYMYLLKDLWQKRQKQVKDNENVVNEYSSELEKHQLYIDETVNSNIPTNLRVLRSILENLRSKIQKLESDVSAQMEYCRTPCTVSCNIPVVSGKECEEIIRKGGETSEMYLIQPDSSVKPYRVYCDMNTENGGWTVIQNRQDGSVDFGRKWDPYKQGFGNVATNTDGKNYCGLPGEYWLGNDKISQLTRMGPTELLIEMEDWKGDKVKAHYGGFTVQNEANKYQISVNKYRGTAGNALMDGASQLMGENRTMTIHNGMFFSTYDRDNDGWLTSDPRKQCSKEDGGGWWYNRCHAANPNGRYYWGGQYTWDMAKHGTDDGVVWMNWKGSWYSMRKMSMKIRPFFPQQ
# T1 sequence (looked up) 3: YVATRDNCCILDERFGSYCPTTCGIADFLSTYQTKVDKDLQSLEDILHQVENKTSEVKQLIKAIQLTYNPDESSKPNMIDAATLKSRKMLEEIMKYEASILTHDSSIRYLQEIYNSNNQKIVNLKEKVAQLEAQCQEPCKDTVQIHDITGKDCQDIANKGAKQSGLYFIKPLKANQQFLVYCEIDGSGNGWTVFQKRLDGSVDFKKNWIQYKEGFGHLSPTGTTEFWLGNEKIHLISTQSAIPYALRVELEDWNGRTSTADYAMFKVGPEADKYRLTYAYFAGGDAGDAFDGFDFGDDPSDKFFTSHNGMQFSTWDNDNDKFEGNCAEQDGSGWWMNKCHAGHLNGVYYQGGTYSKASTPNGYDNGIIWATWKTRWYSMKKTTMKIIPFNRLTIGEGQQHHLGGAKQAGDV
# T2: human fibrin (human fibrinogen coated on the plate and treated with thrombin) (human, UniProt P02671 36-629; P02675 45-491; P02679 27-437)
# T2 construct: Made on the plate: coated human fibrinogen (Sigma) treated with 1.0 U/mL thrombin, CaCl2 and L-cysteine
# T2 sequence (looked up) 1: T1 sequence (looked up) 1
# T2 sequence (looked up) 2: T1 sequence (looked up) 2
# T2 sequence (looked up) 3: T1 sequence (looked up) 3
# B1: recombinant reteplase-(3D5 VL-218-VH scFv α fibrin) protein (other)
# chain: SYQGNSDCYFGNGSAYRGTHSLTESGASCLPWNSMILIGKVYTAQNPSAQALGLGKHNYCRNPDGDAKPWCHVLKNRRLTWEYCDVPSCSTCGLRQYSQPQFRIKGGLFADIASHPWQAAIFAKHRRSPGERFLCGGILISSCWILSAAHCFQERFPPHHLTVILGRTYRVVPGEEEQKFEVEKYIVHKEFDDDTYDNDIALLQLKSDSSRCAQESSVVRTVCLPPADLQLPDWTECELSGYGKHEALSPFYSERLKEAHVRLYPSSRCTSQHLLNRTVTDNMLCAGDTRSGGPQANLHDACQGDSGGPLVCLNDGRMTLVGIISWGLGCGQKDVPGVYTKVTNYLDWIRDNMRPASGGGGSGGGGSGGGGSDIQMTQSPSSLSASVGDRVTITCRASQDVSNNVAWYQQKPGKAPKLLIFWSPWLYSGVPSRFSGSGSGTDFTLTISSLQPEDFATYYCQQGWDSPVTFGQGTKVEIKRGSTSGSGKPGSGEGSTKGEVQLVESGGGLVQPGGSLRLSCAASGFTISDFGIHWVRQAPGKGLEWVASIWPSGGYTYYADSVKGRFTISADTSKNTAYLQMNSLRAEDTAVYYCARSWFYSWYDYWGQGTLVTVSS
# notes: Fusion: reteplase, flexible linker, 3D5 VL, 218 linker, 3D5 VH; also called reteplase-(3D5 scFv); reteplase-(3D5-scFv)
# Legend:
# [1] = molecular target: T1, crosslinked human fibrin treated by …; test: ELISA after storage at 4 C for 3 or 6 days, HRP-protein L
# Procedure: (§1) To evaluate the stability of reteplase-(3D5 scFv) after storage, the reteplase-(3D5 scFv) was stored at 4° C. for 3, 6 and 30 days, and then SDS-PAGE and ELISA analysis were performed.
# (§2) 96-well polystyrene microplates were coated with human fibrinogen (Sigma) (20 μg/mL) in PBS buffer (100 μL/well). After overnight incubation at 4° C., the coated wells were washed with PBS buffer. To induce the cross-linking of human fibrin, coated wells was incubated at 37° C. for 1 hour with human α-thrombin (Sigma) at a final concentration of 1 U/mL in TBS buffer with 2 mM CaCl₂ and 7 mM L-cystine (Merck). After blocking the wells with a blocking buffer (5% non-fat dry milk/PBS), 100 μL of reteplase-(3D5-scFv) at a final concentration of 0.1, 1 and 10 μg/mL were added to each well and incubate at room temperature for 1 hour. Thereafter, the plates were washed three times, and HRP-conjugated protein L diluted to 1/5000 was added to the wells and incubated for 1 hour at room temperature. The wells were washed three times and added with 100 μL of 3,3′,5,5′-Tetramethylbenzidine (TMB) substrate buffer. 5 minutes later, the color development was stopped with 1 M HCl. The optical density (OD) was measured at 450 nm using a microplate reader (Molecular Devices) and the data were processed using Graph Pad Prism software. […]
# [2] = molecular target: T2, human fibrin (human fibrinogen coated …); test: as above
# Procedure: as §1, §2
binder,measurement,setting,value
B1,binding result,[1],binds
same,binding result,[2],binds
